Data: US7838231 (REGENTS OF THE UNIVERSITY OF MICHIGAN, dated 2010)

Legend:
Test in all cases: direct yeast two-hybrid assay
[1] = target: T1, BBS2, human full length, yeast two-hybrid prey (human, UniProt Q9BXC9 1-721)
T1 sequence (looked up): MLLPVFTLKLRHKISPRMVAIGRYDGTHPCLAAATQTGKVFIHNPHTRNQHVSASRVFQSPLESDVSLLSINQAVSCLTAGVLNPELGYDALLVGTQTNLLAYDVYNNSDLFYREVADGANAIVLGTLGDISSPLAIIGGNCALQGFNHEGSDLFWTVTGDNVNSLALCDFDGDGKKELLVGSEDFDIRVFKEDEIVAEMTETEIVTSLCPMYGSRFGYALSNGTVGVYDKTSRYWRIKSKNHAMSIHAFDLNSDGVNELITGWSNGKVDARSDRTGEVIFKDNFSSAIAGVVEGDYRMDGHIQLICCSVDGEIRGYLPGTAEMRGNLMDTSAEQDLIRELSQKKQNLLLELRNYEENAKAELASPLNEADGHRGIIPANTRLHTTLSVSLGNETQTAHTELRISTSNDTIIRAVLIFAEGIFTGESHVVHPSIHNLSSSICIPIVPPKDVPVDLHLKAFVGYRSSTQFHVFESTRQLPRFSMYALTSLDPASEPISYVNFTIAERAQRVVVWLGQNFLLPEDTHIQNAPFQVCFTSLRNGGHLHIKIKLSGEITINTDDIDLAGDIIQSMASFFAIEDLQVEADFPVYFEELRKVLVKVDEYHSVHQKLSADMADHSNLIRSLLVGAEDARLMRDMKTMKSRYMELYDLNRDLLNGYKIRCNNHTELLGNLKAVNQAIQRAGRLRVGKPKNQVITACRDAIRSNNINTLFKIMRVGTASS

[2] = target: T2, KIF3A, yeast two-hybrid construct (UniProt Q9Y496 1-699)
T2 construct: The construct is not described in the methods; not shown: GAL4 domain of the two-hybrid vector; not described for this construct

[3] = target: T3, inversin (NPHP2), human full length, yeast two-hybrid prey (human, UniProt Q9Y283 1-1065)
T3 construct: also called INVS
T3 sequence: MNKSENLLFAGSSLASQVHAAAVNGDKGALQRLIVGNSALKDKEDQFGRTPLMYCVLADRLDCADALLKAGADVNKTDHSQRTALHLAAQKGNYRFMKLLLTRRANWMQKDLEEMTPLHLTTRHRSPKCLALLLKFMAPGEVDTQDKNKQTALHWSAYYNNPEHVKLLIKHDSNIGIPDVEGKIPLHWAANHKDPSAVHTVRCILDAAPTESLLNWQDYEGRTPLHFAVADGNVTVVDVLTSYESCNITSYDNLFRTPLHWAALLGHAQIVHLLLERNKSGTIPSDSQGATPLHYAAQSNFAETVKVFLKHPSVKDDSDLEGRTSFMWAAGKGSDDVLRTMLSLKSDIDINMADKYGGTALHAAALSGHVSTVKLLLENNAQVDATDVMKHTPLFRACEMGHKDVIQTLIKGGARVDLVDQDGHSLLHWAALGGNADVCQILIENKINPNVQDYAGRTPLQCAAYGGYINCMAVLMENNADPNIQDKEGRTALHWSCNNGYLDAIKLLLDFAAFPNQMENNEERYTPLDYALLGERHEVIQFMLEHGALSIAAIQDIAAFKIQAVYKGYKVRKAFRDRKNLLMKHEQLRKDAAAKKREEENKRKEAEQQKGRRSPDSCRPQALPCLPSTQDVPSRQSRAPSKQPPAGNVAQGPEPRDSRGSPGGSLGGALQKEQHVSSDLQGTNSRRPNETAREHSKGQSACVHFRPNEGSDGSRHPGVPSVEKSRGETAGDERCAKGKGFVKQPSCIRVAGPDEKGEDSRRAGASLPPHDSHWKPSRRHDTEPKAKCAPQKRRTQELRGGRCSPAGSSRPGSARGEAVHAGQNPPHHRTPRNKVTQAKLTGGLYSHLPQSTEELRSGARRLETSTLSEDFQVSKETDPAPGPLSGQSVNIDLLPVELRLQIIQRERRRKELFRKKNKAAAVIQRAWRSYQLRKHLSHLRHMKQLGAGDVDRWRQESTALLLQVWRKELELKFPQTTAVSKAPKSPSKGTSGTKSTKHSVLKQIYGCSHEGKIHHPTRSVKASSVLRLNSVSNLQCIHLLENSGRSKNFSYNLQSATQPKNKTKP

[4] = target: T4, BBS7, human full length, yeast two-hybrid prey (human, UniProt Q8IWZ6 1-715)
T4 sequence (looked up): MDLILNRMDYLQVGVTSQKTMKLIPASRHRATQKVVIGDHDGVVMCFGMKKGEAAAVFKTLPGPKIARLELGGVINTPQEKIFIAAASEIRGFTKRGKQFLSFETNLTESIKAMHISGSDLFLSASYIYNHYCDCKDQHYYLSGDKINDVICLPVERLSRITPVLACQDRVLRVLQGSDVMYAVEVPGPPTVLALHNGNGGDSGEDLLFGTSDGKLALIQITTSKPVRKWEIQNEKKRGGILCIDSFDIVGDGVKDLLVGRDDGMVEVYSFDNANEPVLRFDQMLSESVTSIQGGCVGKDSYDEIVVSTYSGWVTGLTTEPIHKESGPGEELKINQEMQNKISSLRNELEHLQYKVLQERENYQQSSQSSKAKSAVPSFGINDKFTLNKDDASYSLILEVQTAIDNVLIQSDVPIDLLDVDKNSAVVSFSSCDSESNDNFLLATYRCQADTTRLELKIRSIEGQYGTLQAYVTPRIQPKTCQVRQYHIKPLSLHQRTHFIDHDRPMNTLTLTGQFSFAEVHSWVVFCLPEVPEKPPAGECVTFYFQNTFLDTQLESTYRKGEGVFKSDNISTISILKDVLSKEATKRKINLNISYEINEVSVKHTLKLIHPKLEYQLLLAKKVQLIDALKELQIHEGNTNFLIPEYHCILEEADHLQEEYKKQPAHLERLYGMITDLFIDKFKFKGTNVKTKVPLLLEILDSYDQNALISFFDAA

Measured: binding result

T2 sequence (Q9Y496 whole entry, the tested form may be a part): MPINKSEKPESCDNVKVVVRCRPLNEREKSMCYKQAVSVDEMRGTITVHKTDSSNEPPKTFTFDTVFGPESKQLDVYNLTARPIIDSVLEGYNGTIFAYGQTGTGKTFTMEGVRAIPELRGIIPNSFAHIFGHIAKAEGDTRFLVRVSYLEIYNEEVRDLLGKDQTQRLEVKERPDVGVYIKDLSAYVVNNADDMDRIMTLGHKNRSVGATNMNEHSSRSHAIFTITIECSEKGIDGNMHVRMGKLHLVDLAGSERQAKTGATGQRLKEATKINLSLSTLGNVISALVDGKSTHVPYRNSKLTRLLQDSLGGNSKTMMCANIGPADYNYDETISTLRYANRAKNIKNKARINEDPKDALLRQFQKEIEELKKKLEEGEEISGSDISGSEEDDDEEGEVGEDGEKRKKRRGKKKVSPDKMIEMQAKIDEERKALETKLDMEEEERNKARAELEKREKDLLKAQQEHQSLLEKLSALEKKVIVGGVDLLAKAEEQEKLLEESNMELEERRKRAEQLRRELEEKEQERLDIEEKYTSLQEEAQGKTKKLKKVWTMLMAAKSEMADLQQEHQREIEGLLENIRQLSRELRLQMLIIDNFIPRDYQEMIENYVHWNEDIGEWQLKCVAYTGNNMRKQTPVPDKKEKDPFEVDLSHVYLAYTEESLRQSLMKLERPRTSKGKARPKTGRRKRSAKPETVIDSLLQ

B1: full-length human nephrocystin-5 (NPHP5), yeast two-hybrid fusion (other, not shown: small tags and cut ends)
chain: MKPTGTDPRILSIAAEVAKSPEQNVPVILLKLKEIINITPLGSSELKKIKQDIYCYDLIQYCLLVLSQDYSRIQGGWTTISQLTQILSHCCVGLEPGEDAEEFYNELLPSAAENFLVLGRQLQTCFINAAKAEEKDELLHFFQIVTDSLFWLLGGHVELIQNVLQSDHFLHLLQADNVQIGSAVMMMLQNILQINSGDLLRIGRKALYSILDEVIFKLFSTPSPVIRSTATKLLLLMAESHQEILILLRQSTCYKGLRRLLSKQETGTEFSQELRQLVGLLSPMVYQEVEEQKLHQAACLIQAYWKGFQTRKRLKKLPSAVIALQRSFRSKRSKMLLEINRQKEEEDLKLQLQLQRQRAMRLSRELQLSMLEIVHPGQVEKHYREMEEKSALNIQKHWRGYRERKNFHQQRQSLIEYKAAVTLQRAALKFLAKCRKKKKLFAPWRGLQELTDARRVELKKRVDDYVRRHLGSPMSDVVSRELHAQAQERLQHYFMGRALEERAQQHREALIAQISTNVEQLMKAPSLKEAEGKEPELFLSRSRPVAAKAKQAHLTTLKHIQAPWWKKLGEESGDEIDVPKDELSIELENLFIGGTKPP
notes: Full-length NPHP5 cDNA (598 amino acid residues) fused to a GAL4 domain; also called KIAA0036
no binding: all assays above
